Article PMC4454200 (2015)

Target: Myosin-5a (Mus musculus, UniProt Q99104)
Assay: ATPase activity assay

Sequence of Myosin-5a (Q99104 2-1853): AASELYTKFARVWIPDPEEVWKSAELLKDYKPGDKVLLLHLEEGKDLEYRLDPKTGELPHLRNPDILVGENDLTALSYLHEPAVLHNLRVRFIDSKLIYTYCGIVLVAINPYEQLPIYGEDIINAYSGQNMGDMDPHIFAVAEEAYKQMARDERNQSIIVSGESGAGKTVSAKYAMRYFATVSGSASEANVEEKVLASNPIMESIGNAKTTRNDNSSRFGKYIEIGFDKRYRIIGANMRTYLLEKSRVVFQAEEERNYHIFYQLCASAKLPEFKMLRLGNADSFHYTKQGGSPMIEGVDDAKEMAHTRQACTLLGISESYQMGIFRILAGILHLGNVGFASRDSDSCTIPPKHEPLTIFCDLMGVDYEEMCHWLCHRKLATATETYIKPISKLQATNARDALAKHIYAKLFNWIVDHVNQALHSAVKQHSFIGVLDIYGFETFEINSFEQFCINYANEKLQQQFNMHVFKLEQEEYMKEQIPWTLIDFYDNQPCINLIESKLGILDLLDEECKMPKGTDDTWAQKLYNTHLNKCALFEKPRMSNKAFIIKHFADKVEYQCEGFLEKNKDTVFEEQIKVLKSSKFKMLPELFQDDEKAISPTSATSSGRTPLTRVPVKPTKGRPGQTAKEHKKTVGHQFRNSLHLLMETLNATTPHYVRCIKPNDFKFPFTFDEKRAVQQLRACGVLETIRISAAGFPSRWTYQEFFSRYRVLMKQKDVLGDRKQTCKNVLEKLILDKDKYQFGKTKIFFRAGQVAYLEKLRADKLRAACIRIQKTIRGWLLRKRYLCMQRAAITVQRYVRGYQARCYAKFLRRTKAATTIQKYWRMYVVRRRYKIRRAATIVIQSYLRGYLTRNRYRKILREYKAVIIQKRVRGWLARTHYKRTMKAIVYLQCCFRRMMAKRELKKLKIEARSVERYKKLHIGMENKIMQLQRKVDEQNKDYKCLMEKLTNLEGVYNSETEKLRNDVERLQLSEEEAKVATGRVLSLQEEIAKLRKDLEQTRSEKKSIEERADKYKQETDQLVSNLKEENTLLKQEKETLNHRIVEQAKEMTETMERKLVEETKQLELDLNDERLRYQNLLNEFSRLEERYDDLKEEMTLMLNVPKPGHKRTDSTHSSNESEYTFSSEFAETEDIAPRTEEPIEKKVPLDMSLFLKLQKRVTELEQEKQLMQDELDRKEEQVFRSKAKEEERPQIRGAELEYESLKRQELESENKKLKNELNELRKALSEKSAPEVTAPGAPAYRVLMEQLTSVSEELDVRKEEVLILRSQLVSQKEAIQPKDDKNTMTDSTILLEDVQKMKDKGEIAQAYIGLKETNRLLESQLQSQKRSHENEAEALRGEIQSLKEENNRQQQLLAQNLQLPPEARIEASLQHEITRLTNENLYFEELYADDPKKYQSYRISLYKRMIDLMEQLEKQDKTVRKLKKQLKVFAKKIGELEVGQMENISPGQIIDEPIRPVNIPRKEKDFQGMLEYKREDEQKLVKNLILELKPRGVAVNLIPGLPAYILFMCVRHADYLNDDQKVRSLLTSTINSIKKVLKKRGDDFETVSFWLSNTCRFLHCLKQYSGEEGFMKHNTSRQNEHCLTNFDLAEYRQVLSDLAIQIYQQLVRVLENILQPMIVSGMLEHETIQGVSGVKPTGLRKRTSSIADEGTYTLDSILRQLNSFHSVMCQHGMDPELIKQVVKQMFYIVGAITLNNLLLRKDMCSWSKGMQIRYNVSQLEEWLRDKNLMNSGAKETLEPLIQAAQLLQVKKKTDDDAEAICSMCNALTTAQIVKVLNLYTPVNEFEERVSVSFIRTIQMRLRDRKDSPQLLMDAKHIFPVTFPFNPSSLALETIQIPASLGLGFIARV

B1: Melanophilin GTBDP (peptide)
chain: RDQPLNSKKKKRLLSFRDVDFEEDSD
  Kd: 19.8 µM
